# Test results published in patent US8114968.
# B1: 539B-M0042-B06 (Fab, V domains shown)
# VH: EVQLLESGGGLVQPGGSLRLSCAASGFTFSFYHMEWVRQAPGKGLEWVSSISPSGGHTDYADSVKGRFTISRDNSKNTLYLQMNSLRAEDTAVYYCASLLSGTWGQGTLVTVSS
# VL: DIQMTQSPDTLSLSPGERATLSCRASQTISSTFLAWYQQKPGQAPRLLIYGASTRAAGIPDRFIGSGSGTDFTLTISSLEPEDSAVYYCQQYDRSPTFGGGTKVEIK
# B2: 539B-M0041-G01 (Fab, V domains shown)
# VH: EVQLLESGGGLVQPGGSLRLSCAASGFTFSYYPMAWVRQAPGKGLEWVSYISSSGGLTTYADSVKGRFTISRDNSKNTLYLQMNSLRAEDTAVYYCARSPTYYDFWSGYWAGIFDYWGQGTLVTVSS
# VL: DIQMTQSPSSLSASVGDRVTITCRASQSISYFLNWYQQKPGKAPKLLIYAASTLQGGVPSRFRGSGSGTDFTLTISSLQPEDFATYYCQHSYSTPPITFGPGTKVDIK
# B3: 539B-M0034-C04 (Fab, V domains shown)
# VH: EVQLLESGGGLVQPGGSLRLSCAASGFTFSEYPMYWVRQAPGKGLEWVSVIYPSGGWTDYADSVKGRFTISRDNSKNTLYLQMNSLRAEDTAVYYCARMAVTGGSRFDYWGQGTLVTVSS
# VL: DIQMTQSPSSLSASVGDRVSITCRASQNINSYLNWYQQKVGKAPKLLIFGAYTLHSGAPSRFSGSGSGTDFTLTISSLQPEDVATYYCQQTYTSYSFAQGTKLEIK
# B4: 539B-M0041-B05 (Fab, V domains shown)
# VH: B3 VH
# VL: B3 VL
# B5: 539B-M0016-D01 (Fab, V domains shown)
# VH: EVQLLESGGGLVQPGGSLRLSCAASGFTFSEYNMPWVRQAPGKGLEWVSYIYSSGGSTEYADSVKGRFTISRDNSKNTLYLQMNSLRAEDMAVYYCAKDLWEDSSTWGYGMDVWGQGTTVTVSS
# VL: QSELTQPPSVSVSPGQTATITCSGDVSVHKSFCWYQQRPGQSPVLVIYQIDKRPSGVPERFSGSISGTTATLTISGTQATDEADYYCQGWDSTTYYVFGTGTKVTVL
# B6: 539B-M0039-F01 (Fab, V domains shown)
# VH: EVQLLESGGGLVQPGGSLRLSCAASGFTFSRYWMDWVRQAPGKGLEWVSGIYPSGGYTLYADSVKGRFTISRDNSKNTLYLQMNSLRAEDTAVYYCARHGDYMDVWGKGTTVTVSS
# VL: NIQMTQSPSSVSASVGDRVTITCRASQDINYWLAWYQQKPGKAPKLLIYAASSLQSGVPSRFSGSGSGTDFTLTISSLQPEDFATYYCQRANSFPYTFGQGTKLEIK
# B7: 539B-M0009-H08 (Fab, V domains shown)
# VH: EVQLLESGGGLVQPGGSLRLSCAASGFTFSMYWMFWVRQAPGKGLEWVSSISSSGGHTFYADSVKGRFTISRDNSKNTLYLQMNSLRAEDTAVYYCARGSYSGYDPFDYWGRGTLVTVSS
# VL: QYELTQPPALSVAPGETATITCGGDKIGRKSVNWYQQKAGQAPVLVIFYDNDRPSGITGRFSGSNSGNSATLTISRVEAGDEADFYCQVWGPNDFPLFGGGTKLTVL
# Target: human MMP-12 (human) (UniProt P39900)
# Sequence (P39900 106-470 limits assumed): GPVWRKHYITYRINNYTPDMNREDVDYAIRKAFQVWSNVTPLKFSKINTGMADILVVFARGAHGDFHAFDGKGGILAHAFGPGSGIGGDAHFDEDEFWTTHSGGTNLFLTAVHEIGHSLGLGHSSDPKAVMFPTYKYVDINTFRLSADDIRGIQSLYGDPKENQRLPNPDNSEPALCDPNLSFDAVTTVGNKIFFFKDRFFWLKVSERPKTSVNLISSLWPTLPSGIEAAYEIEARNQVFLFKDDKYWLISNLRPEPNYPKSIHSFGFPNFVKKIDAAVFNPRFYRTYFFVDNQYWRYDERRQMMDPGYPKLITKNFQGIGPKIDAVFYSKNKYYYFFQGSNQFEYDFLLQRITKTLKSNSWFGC
# Assay: cell-based or functional assay
% of activity left with 100 nM in assay 04 Oct. 2006,% of activity left with 100 nM in assay 29 Aug. 2006,Binder
53.6%,–,B1
109%,84.8%,B2
38.6%,39.1%,B3
35.1%,–,B4
48.1%,–,B5
69.4%,57.8%,B6
103%,–,B7
